# Test system: Flammulina velutipes
# Experiment: Test for the function of Cbr sequence: growth of transformed strains on PDA plate medium containing carboxin
# Assay type: cell-based
# Details: ten transformed Flammulina velutipes strains (electroporation, pMush-A-mFvCbr) cultured in PDA plate medium containing 2 mg/ml carboxin for one week
# Procedure: The vector for expressing mutant Cbr sequence is pMush-A vector containing GPD promoter (pGPD) and hygromycin resistance (hyg) marker. The mutant Cbr sequence preserved in mFvCbrAMV vector (FIG. 1B) and pMush-A vector were sliced with BamH I and Spe I, respectively. The mutant Cbr sequence (mFvCbr) was ligated to the corresponding sites in pMush-A vector using T4 DNA ligase. The constructed vector is called pMush-A-mFvCbr (FIG. 2B).
# The mycelia of Flammulina velutipes were cultured in PDB medium at 25° C. for 1-2 weeks. The resulting mycelia were disrupted by a homogenizator and then treated with lysing enzyme solution containing lysing enzyme (Sigma, St. Louis, Mo., U.S.A.), mannitol and potassium phosphate buffer. The resulting mycelial fragments were dissolved in 100 μl electroporation buffer solution as the competent cells used in the electroporation. The well-prepared competent cells were added to the mutant Cbr DNA solution obtained from Example 2 and then placed on ice for 10 minutes. An electroporation was conducted for the resulting solution using Electro Cell Manipulator ECM 630 Electroporation System (BTX, San Diego, Calif., U.S.A.) to obtain transformed mycelia. […] Ten transformed strains were selected and cultured in PDA plate medium containing 2 mg/ml carboxin for one week. […]
molecule,measurement,value
"mutant Cbr DNA: Flammulina velutipes succinate dehydrogenase iron-sulfur protein gene with point mutation His238 to Leu (CAC→CTC), SEQ ID NO: 1 (nucleic acid, Flammulina velutipes) DNA: ATGCAGTCCGTCGCCCGTCGTTTCTCTGCCGCCGCCGTGCGCCGTAGCTTTTCTACCACTTCTGTCGCGTTCCAGGCTACACCGCTCGAGAAGCCCGTGCTGAACAAGGAATTCAAGATTTACCGCTGGAATCCTGATGAGCCGGAGAAGAAACCGACGCTACAGAGCTACATAATCGACCTGAACCAGACAGGGCCAATGATTCTGGATGCTCTCATCAAGATTAAAAACGAAATCGACCCTACGCTTACCTTCAGACGAAGTTGTCGCGAGGGCATTTGCGGATCTTGTGCGAGAAAAATCGACGGGCAGAACACGTTGGCCTGTCTCTGCAGGATTGATAGGAATGCTGGGAAGGATTCGAAGATCTATCCCTTACCACACAGTGAGTGTCTCATCTGAGCTCTGCGTATCTGAGTGCTAACTTAGATTCCAGTGTACATCGTCAAGGACCTCGTACCGGATCTCACCTACTTCTACAAGCAGTACAAGTCTATCCAACCATACCTTCAGAACGACAACCCACCTGCGTCAGGTCTGTTCATTATTTTGCACCCTCCCCTTTGCTCGGCTTACCGAATCGCTTCTAGGTGAATTCCTCCAAACGCAAGATGACCGCAAGAAGCTCGACGGACTCTACGAGTGTATCCTTTGCGCGTGTTGTTCGACGTCTTGCCCTTCGTATTGGTGGAACCAAGACGAATACCTTGGACCCGCTACTTTGATGCAAGCATATCGCTGGATCGCCGACTCGAGAGTACGTTCTGCTCGTCGTATCATGTTTTATCTCATACTGATATACTCTTAGGACTCTTATGCCGCAGAACGCAAGGAAAAGCTCCAAAACGAGATGAGCATGTACCGATGCCTCACTATCTTCAACTGCTCGCGGACATGCCCCAAGGGTCTCAACCCCGCTGCCGCCATCGCGAAAATCAAGCTTGAGCTTGCGGCCGAGTAA",growth of transformed strains in PDA plate medium containing carboxin (carboxin resistance),Four strains grew
